Substitutions are numbered along the chain they refer to. One block for each binder: values may come before it.
Columns and labels:
[1] = target: T1, recombinant human TR-2 with a C-terminal hexahistidine tag (TR-2-His) (human, UniProt O14763 56-207); assay: SPR Biacore 2000; antibody captured on anti-human antibody chip, 226 nM TR-2-His injected, 25 C, 1:1 model;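 note: goat anti-human capture surface amine-coupled on CM5 chip, HBS-P running buffer with BSA, responses normalized to captured antibody level, kinetics from global 1:1 fitting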
T1 construct: also called soluble TR-2-His
Procedure: (§1) The kinetics of the binding of anti-TR-2 antibodies A to Q to TR-2 was analyzed using a Biacore® 2000 instrument. High-density goat anti-human antibody surfaces were prepared on CM-5 Biacore® chips using routine amine coupling. Each purified anti-TR-2 antibody was diluted to approximately 1 μg/ml in HBS-P running buffer containing 100 μg/ml BSA. Each anti-TR-2 antibody was captured on a separate surface using a two minute contact time and a five minute wash to stabilize the anti-TR-2 antibody surface on the chip.
(§2) Additionally, the data for TR-2 binding to anti-TR-2 antibody were normalized for the amount of monoclonal antibody captured on each surface. Each data set was fit globally to a 1:1 interaction model to determine binding kinetics.

[2] = target: T1, recombinant human TR-2 with a …; assay: SPR Biacore 2000; antibody captured on anti-human antibody chip, 226 nM TR-2-His injected, 25 C, 1:1 model; data heterogeneous, fit poorly
Procedure: as §1, §2

Kd [1]: 18 nM | koff [1]: 0.011 s⁻¹ | kon [1]: 600000 M⁻¹ s⁻¹
B1: anti-TR-2 antibody L (antibody, V domains shown)
VH: QVQLQQWGARLLKPSETLSLTCAVYGGSFSGYYWSWIRQPPGKGLEWIGEINHSGSTNYNPSLKSRVTISVDTSKNQFSLKLRSVTAADTAVYYCARGGSSGYWYFDLWGRGTLVTVSS
VL: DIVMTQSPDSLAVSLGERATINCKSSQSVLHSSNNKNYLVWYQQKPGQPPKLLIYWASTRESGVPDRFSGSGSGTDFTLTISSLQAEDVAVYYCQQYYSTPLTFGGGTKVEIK
notes: also called Ab L

Kd [1]: 4.5 nM | koff [1]: 0.0027 s⁻¹ | kon [1]: 620000 M⁻¹ s⁻¹
B2: anti-TR-2 antibody D (antibody, V domains shown)
VH: QVQLQESGPGLVKPSQTLSLTCTVSGGSISSGGHYWSWIRQHPGKGLEWIGYIYYSGSAYYNPSLKSRVTISVDTSKNQFSLKLSSVTAADTAVYYCARDDSSGWGFDYWGQGILVTVSS
VL: DIQMTQSPSSLSASVGDRVTITCRASQGLRNDLGWFQQKPGKAPKRLIYAASSLQRGVPSRFSGSGSGTEFTLTISSLQPEDFTTYFCLQHNSFPWTFGQGTKVEIK
notes: Human antibody from XenoMouse; also called Ab D

Kd [1]: 3.9 nM | koff [1]: 0.0026 s⁻¹ | kon [1]: 680000 M⁻¹ s⁻¹
B3: anti-TR-2 antibody C (antibody, V domains shown)
VH: B2 VH
VL: B2 VL
notes: Human antibody from XenoMouse; also called Ab C

Kd [1]: 19 nM | koff [1]: 0.011 s⁻¹ | kon [1]: 570000 M⁻¹ s⁻¹
B4: anti-TR-2 antibody B (antibody, V domains shown)
VH: B2 VH with A59T
VL: B2 VL with A43V, P44T, T84A, F87Y, N92Y
notes: Human antibody from XenoMouse; also called Ab B

Kd [1]: 37 nM | koff [1]: 0.012 s⁻¹ | kon [1]: 340000 M⁻¹ s⁻¹
B5: anti-TR-2 antibody M (antibody, V domains shown)
VH: EVQVVESGGGLVKPGGSLRLSCAASGFTFSSYSMNWVRQAPGKGLEWVSSISSSSSYIYYADSVKGRFTISRDNAKNSLYLQMNSLRAEDTAVYYCARGGSSWYGDWFDPWGQGTLVTVSS
VL: DIQMTQSPSSVSASVGDRVTITCRASQGISSWLVWYQQKPGKAPKLLIYAASSLQSGVPSRFSGSGSGTDFTLTISSLQPEDFATYYCQQANSFPFTFGGGTKVEIK
notes: also called Ab M

Kd [2]: 33 nM | koff [2]: 0.027 s⁻¹ | kon [2]: 810000 M⁻¹ s⁻¹
B6: anti-TR-2 antibody P (antibody, V domains shown)
VH: QVQLQESGPGLVKPSQTLSLTCSVSGGSISSGGYYWSWIRQHPGKGLEWIGYIYYSGSTYCNPSLKSRVTISVDTSKNQFSLKLSSVTAADTAVYYCARDNGSGSYDWFDPWGQGILVTVSS
VL: B5 VL with V34A, L46F, Y49F, A50V, L54F, F96R, G100Q
notes: Human antibody from XenoMouse; also called Ab P

Kd [2]: 13 nM | koff [2]: 0.016 s⁻¹ | kon [2]: 1.2e+06 M⁻¹ s⁻¹
B7: anti-TR-2 antibody Q (antibody, V domains shown)
VH: B6 VH with L4M, S23T, G33D, G46N, C61Y, I116T
VL: B5 VL with V34A, L46F, Y49F, A50V, F96R, G100Q
notes: Human antibody from XenoMouse; also called Ab Q

Kd [1]: 31 nM | koff [1]: 0.019 s⁻¹ | kon [1]: 600000 M⁻¹ s⁻¹
B8: anti-TR-2 antibody G (antibody, V domains shown)
VH: QVQAEQSGPGLVKPSETLSLTCTVSGGSISNYYWSWIRQPPGKGLEWIGYIYYSGSTKYNPSLKSRVTISVDTSKNQFSLKLTSVTTADTAVYYCARDSPRGFSGYEAFDSWGQGTLVTVSS
VL: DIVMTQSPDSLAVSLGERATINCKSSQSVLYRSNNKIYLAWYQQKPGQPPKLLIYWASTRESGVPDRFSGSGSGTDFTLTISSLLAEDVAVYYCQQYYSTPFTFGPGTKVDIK
notes: also called Ab G

Kd [1]: 4.4 nM | koff [1]: 0.0013 s⁻¹ | kon [1]: 290000 M⁻¹ s⁻¹
B9: anti-TR-2 antibody I (antibody, V domains shown)
VH: QVQLVESGGGLVKPGGSLRLSCAASGFTFSDYYMSWIRQAPGKGLEWVSYISRSGSTIYYADSVKGRFTISRDNAKNSLYLQMNSLRAEDTAVYYCARSLGGMDVWGQGTTVTVSS
VL: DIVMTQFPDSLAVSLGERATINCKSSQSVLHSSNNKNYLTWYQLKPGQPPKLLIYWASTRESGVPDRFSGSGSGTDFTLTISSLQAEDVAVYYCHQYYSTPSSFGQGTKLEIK
notes: also called Ab I

Kd [1]: 9.8 nM | koff [1]: 0.0084 s⁻¹ | kon [1]: 860000 M⁻¹ s⁻¹
B10: anti-TR-2 antibody H (antibody, V domains shown)
VH: QVQLQESGPGLVKPSQTLSLTCTVSGGSISSDNYYWSWIRQHPGKGLEWIGYIYYSGSTYYNPSLKSRVTISVDTSKNQFSLKLSSVTAADTAVYYCARGVNWNFLFDIWGQGTMVTVSS
VL: not shown
notes: also called Ab H

Kd [1]: 6.9 nM | koff [1]: 0.0037 s⁻¹ | kon [1]: 530000 M⁻¹ s⁻¹
B11: anti-TR-2 antibody A (antibody, V domains shown)
VH: QVQLVQSGAEVKKPGASVKVSCKASGYTFTSYDINWVRQATGQGLEWMGWMNPNSDNTGYAQKFQGRVTMTRNTSISTAYMELSSLRSEDTAVYYCARWNHYGSGSHFDYWGQGTLVTVSS
VL: DIQMTQSPSSLSASVGDRVTITCRASQSISIYLNWYQQKPGKAPKLLIYAASSLQSGVPLRFSGSGSGTDFTLTISSLQPEDIATYYCQQSYKTPLTFGGGTKVEIK
notes: also called Ab A

Kd [1]: 12 nM | koff [1]: 0.0071 s⁻¹ | kon [1]: 570000 M⁻¹ s⁻¹
B12: anti-TR-2 antibody J (antibody, V domains shown)
VH: QVQLVESGGGVVQPGRSLRLSCAASGFTFNNYGMHWVRQAPGKGLEWVAVIWYDGSNKYYADSVKGRFTISRDNSKNTLYLQMNSLRAEDTAVYYCARDRTVYSNSSPFYYYYYGMDVWGQGTTVTVSS
VL: B11 VL with A25T, I31T, Y49S, A51T, L60S, I83F, K93S
notes: also called Ab J

Kd [1]: 18 nM | koff [1]: 0.012 s⁻¹ | kon [1]: 680000 M⁻¹ s⁻¹
B13: anti-TR-2 antibody K (antibody, V domains shown)
VH: B12 VH with N30S, N31T, N105S
VL: B11 VL with I31S, Y49S, A51T, L54F, L60S, I83F, T85A, K93S
notes: also called Ab K

Kd [1]: 13 nM | koff [1]: 0.005 s⁻¹ | kon [1]: 380000 M⁻¹ s⁻¹
B14: anti-TR-2 antibody F (antibody, V domains shown)
VH: QVQLVESGGGVVQPGRSLRLSCAASGFTFSYYGIHWVRQAPGKGLEWVAVIWYDGSNKYYADSVKGRFTISRDNSKNTLYLQMNSLRAEDTAVYYCARGRYSSSSWWYFDLWGRGTLVTVSS
VL: DIQMTQSPSSLSASVGDRVTITCRASQGISNYLAWYQQKPGKVPKLLIYAASTLQSGVPSRFSGSGSGTDFTLTISSLQPEDVATYYCQKYNSAPLTFGGGTKVEIK
notes: also called Ab F

Kd [2]: 68 nM | koff [2]: 0.055 s⁻¹ | kon [2]: 810000 M⁻¹ s⁻¹
B15: anti-TR-2 antibody N (antibody, V domains shown)
VH: QLVESGGGVVQPGRSLRLSCAASGFTFSSYGMHWVRQAPGKGLEWVAVIWYDGRNKYYADSVKGRFTISRDNSKNTLYLQMNSLRAEDTAVYYCAREVGYCTNGVCSYYYYGMDVWGQGTTVTVSS
VL: B14 VL with Y36F, V43A, L46S, T53S, R61K, V83F, K90Q, A94Y
notes: also called Ab N

Kd [1]: 19 nM | koff [1]: 0.0084 s⁻¹ | kon [1]: 440000 M⁻¹ s⁻¹
B16: anti-TR-2 antibody O (antibody, V domains shown)
VH: QVQLQESGPGLVKPSQTLSLTCTVSGGSISSGDYFWSWIRQLPGKGLECIGHIHNSGTTYYNPSLKSRVTISVDTSKKQFSLRLSSVTAADTAVYYCARDRGGDYYYGMDVWGQGTTVTVSS
VL: EIVLTQSPGTLSLSPGERATLSCRASQGISRSYLAWYQQKPGQAPSLLIYGASSRATGIPDRFSGSGSGTDFTLTISRLEPEDFAVYYCQQFGSSPWTFGQGTKVEIK
notes: also called Ab O

Kd [1]: 2.1 nM | koff [1]: 0.0018 s⁻¹ | kon [1]: 870000 M⁻¹ s⁻¹
B17: anti-TR-2 antibody E (antibody, V domains shown)
VH: QVQLVESGGGLVKPGGSLRLSCAASGFTFSDYYMNWIRQAPGKGLEWVSHISSSGSILDYADSVKGRFTISRDNAKNSLYLQMNSLRVEDTAVYYCARDGAAAGTDAFDLWGQGTMVTVSS
VL: DIQMTQSPSSLSASVGDRVTITCRSSQSISNYINWYQQRPGKAPNLLIHDVSSFQSAVPSRFSRSGSGTVFTLTISSLQPEDFATYFCQQTYITPFTFGPGTKVDIK
notes: also called Ab E
